Measurements as given in publication PMC9138216.

Target: Bacillus pumilus bilirubin oxidase (Bacillus pumilus)
Test: crystal structure; X-ray, 3.5 Å; crystals grown at 20 °C in 0.1 M sodium citrate pH 5.5, 20% PEG 3000; dimer interface analysed with PDBePISA

stoichiometry N: 2
Substance: Bacillus pumilus bilirubin oxidase (enzyme)
